Test results as given in the FLAb antibody collection (doi:10.7554/elife.23156).

B1: scFv; the commonest letter at each place (parent)
chain 1: EVKLDETGGGLVQPGRPMKLSCVASGFTFSDYWMNWVRQSPEKGLEWVAQIRNKPYNYETYYSDSVKGRFTISRDDSKSSVYLQMNNLRVEDMGIYYCTGSYYGMDYWGQGTSVTVS
chain 2: DVVMTQTPLSLPVSLGDQASISCRSSQSLVHSNGNTYLRWYLQKPGQSPKVLIYKVSNRFSGVPDRFSGSGSGTDFTLKISRVEAEDLGVYFCSQSTHVPWTFGGGTKLEIK

Columns and labels:
fluorescein = variants of: B1; assay: Kd (Tite-Seq); conditions: with fluorescein; format: scFv 4-4-20, heavy + light
[1] = variants of: B1; assay: yeast surface expression (ratio to wild type); higher = more expressed; conditions: format: scFv 4-4-20, heavy + light

Row | Variant | Kd (fluorescein) [µM] | yeast surface expression [1]
1 | chain 1 G104N | ≥ 10 | 1.1
2 | chain 1 G104C | ≥ 10 | 0.578
3 | chain 1 F29A M34V | ≥ 10 | 0.827
4 | chain 1 Y103P G109S | ≥ 10 | 0.828
5 | chain 1 Y32V M34Q | ≥ 10 | 0.849
6 | chain 1 Y32A M34S | ≥ 10 | 0.769
7 | chain 1 G100Q D106I | ≥ 10 | 0.184
8 | chain 1 M34Y N35V | ≥ 10 | 0.434
9 | chain 1 D106W W108K | ≥ 10 | 0.243
10 | chain 1 F29D Y32K W33Y | 6.61 | 1.18
11 | chain 1 Y103M Y107W | 0.00204 | 0.871
12 | chain 1 S101D G109I | ≥ 10 | 0.22
13 | chain 1 Y103K G104I | ≥ 10 | 0.711
14 | chain 1 Y107S W108S | ≥ 10 | 0.484
15 | chain 1 T28Y | 0.00325 | 0.919
16 | chain 1 T28D V37C | ≤ 0.000316 | 0.886
17 | chain 1 F29M W33P | ≥ 10 | 0.639
18 | chain 1 F29M W33V | ≥ 10 | 0.982
19 | chain 1 D31Y W33F V37H | ≥ 10 | 0.788
20 | chain 1 G100C Y107E | ≥ 10 | 0.6
21 | chain 1 T28C S30I | 0.424 | 0.651
22 | chain 1 F29E Y32V | ≥ 10 | 0.811
23 | chain 1 W33F W36C | ≥ 10 | 0.455
24 | chain 1 D31L V37K | 9.5 | 0.686

Row | Variant | Kd (fluorescein) [µM] | yeast surface expression [1]
25 | chain 1 M34V V37D | 3.74 | 0.584
26 | chain 1 D106L G109C | ≥ 10 | 0.166
27 | chain 1 T28K W33D | ≥ 10 | 0.981
28 | chain 1 N35F V37S | ≥ 10 | 0.884
29 | chain 1 M34T V37C | 0.02 | 0.697
30 | chain 1 N35R W36P | ≥ 10 | 0.809
31 | chain 1 W33N V37Q | ≥ 10 | 0.415
32 | chain 1 M105Q G109M | ≥ 10 | 0.216
33 | chain 1 M105Q G109W | ≥ 10 | 0.115
34 | chain 1 Y103D Y107N | 1.26 | 1.12
35 | chain 1 T28P S30G | 0.000804 | 1.25
36 | chain 1 M105W Y107C | ≥ 10 | 0.264
37 | chain 1 F29L N35D | ≥ 10 | 0.64
38 | chain 1 Y103L D106I | ≥ 10 | 0.764
39 | chain 1 Y32M V37T | ≥ 10 | 0.538
40 | chain 1 G100P W108M | ≥ 10 | 0.572
41 | chain 1 W108E G109T | ≥ 10 | 0.269
42 | chain 1 Y32I W33T N35A | ≥ 10 | 0.824
43 | chain 1 T28Q N35R | ≥ 10 | 0.537
44 | chain 1 S101Y G104T | ≥ 10 | 0.261
45 | chain 1 G109L | ≥ 10 | 0.217
46 | chain 1 G109N | ≥ 10 | 0.622
47 | chain 1 D106Q Y107I | ≥ 10 | 0.712
48 | chain 1 F29T M34N | ≥ 10 | 0.548

Row | Variant | Kd (fluorescein) [µM] | yeast surface expression [1]
49 | chain 1 M105S G109H | ≥ 10 | 0.261
50 | chain 1 G104H G109H | ≥ 10 | 0.765
51 | chain 1 Y103M M105H D106Y | ≥ 10 | 0.63
52 | chain 1 Y32L M34T W36I | ≥ 10 | 0.622
53 | chain 1 Y32S W33F | ≥ 10 | 0.984
54 | chain 1 M34L V37T | ≥ 10 | 0.546
55 | chain 1 T28M D31I W33Y | ≥ 10 | 0.462
56 | chain 1 S101Y W108V | ≥ 10 | 0.397
57 | chain 1 F29D W33L | ≥ 10 | 0.795
58 | chain 1 G100I Y107E | ≥ 10 | 0.689
59 | chain 1 F29S N35R | 0.0434 | 0.922
60 | chain 1 F29M V37Y | 7.72 | 1.04
61 | chain 1 S101W G104W | ≥ 10 | 0.254
62 | chain 1 F29P V37H | ≥ 10 | 0.626
63 | chain 1 N35E V37W | ≥ 10 | 0.704
64 | chain 1 S101D D106R W108I | 0.00251 | 0.452
65 | chain 1 G100Y W108L | ≥ 10 | 0.393
66 | chain 1 W108R | ≥ 10 | 0.455
67 | chain 1 W108S | 0.0158 | 0.51
68 | chain 1 S30N W33D | ≥ 10 | 1.05
69 | chain 1 W33A | ≥ 10 | 0.883
70 | chain 1 Y102E | ≥ 10 | 0.889
71 | chain 1 Y102L | 0.61 | 0.974
72 | chain 1 Y102H | 0.004 | 1.17

Row | Variant | Kd (fluorescein) [µM] | yeast surface expression [1]
73 | chain 1 T28K D31I | ≥ 10 | 0.645
74 | chain 1 S101V Y103F D106V | ≥ 10 | 0.283
75 | chain 1 D31C N35Y | ≥ 10 | 0.763
76 | chain 1 M34N N35V | ≥ 10 | 0.505
77 | chain 1 F29N S30Q N35K | ≥ 10 | 2.76
78 | chain 1 T28D D31L | 0.000804 | 0.935
79 | chain 1 M105D W108T | ≥ 10 | 0.455
80 | chain 1 Y32D N35Y | ≥ 10 | 0.498
81 | chain 1 W36R | 8.34 | 0.957
82 | chain 1 F29I S30L | 0.676 | 0.564
83 | chain 1 Y102T D106P | ≥ 10 | 0.351
84 | chain 1 Y102I D106Q | ≥ 10 | 0.599
85 | chain 1 Y103I D106L | ≥ 10 | 0.354
86 | chain 1 Y103F Y107V | 0.0146 | 0.817
87 | chain 1 D106W Y107G G109L | ≥ 10 | 0.109
88 | chain 1 Y103P | ≥ 10 | 0.791
89 | chain 1 Y103G | 0.0171 | 1.14
90 | chain 1 Y103I | 0.018 | 0.964
91 | chain 1 S30Y W36A | ≥ 10 | 0.404
92 | chain 1 M34P N35L | ≥ 10 | 0.779
93 | chain 1 D31L N35F | ≥ 10 | 0.446
94 | chain 1 M105T G109C | ≥ 10 | 0.27
95 | chain 1 S30T W36M | 0.02 | 0.705
96 | chain 1 G100Y G109W | ≥ 10 | 0.26

Row | Variant | Kd (fluorescein) [µM] | yeast surface expression [1]
97 | chain 1 Y32R W36Y | 7.72 | 0.635
98 | chain 1 F29V V37G | 5.96 | 0.65
99 | chain 1 G100T S101N G104K | ≥ 10 | 0.565
100 | chain 1 G104W M105R | ≥ 10 | 0.484
101 | chain 1 M34P V37A | ≥ 10 | 0.897
102 | chain 1 M34K N35A | 0.0692 | 0.175
103 | chain 1 Y103T D106R | ≥ 10 | 0.311
104 | chain 1 W108K G109L | ≥ 10 | 0.219
105 | chain 1 S101C Y103V D106I | ≥ 10 | 0.168
106 | chain 1 F29G D31R | ≥ 10 | 0.931
107 | chain 1 Y103C M105G | ≥ 10 | 0.611
108 | chain 1 Y103C M105L | 0.02 | 0.641
109 | chain 1 G100C G104I | ≥ 10 | 0.267
110 | chain 1 Y102E Y107A | ≥ 10 | 0.904
111 | chain 1 S30K W33L | ≥ 10 | 0.749
112 | chain 1 M34C N35I | ≥ 10 | 0.462
113 | chain 1 S101M Y103A | ≥ 10 | 0.658
114 | chain 1 Y103S G104D | ≥ 10 | 1.12
115 | chain 1 F29P W33E | ≥ 10 | 0.722
116 | chain 1 F29R V37E | 1.08 | 0.545
